Measured values reported in the supplement of paper PMC7125110.
± gives the standard error. Fewer inactive variants are shown than the library holds.

B1: glmS ribozyme (parent)
chain: AUAAAAGCGCCAGAACUACAGAAAUGUAGUUGACGAGGAGGAGGUUUAUCGAAUUUUCGGCGGAUGCCUCCAAA

Legend:
Conditions in all cases: with glucosamine-6-phosphate
glucosamine-6-phosphate [1] = variants of: B1; test: self-cleavage kobs at 40 uM GlcN6P; higher = faster cleavage; RNA array
Procedure, shortened: (§1)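 The measurements used barcoded ribozyme variants on sequenced MiSeq chips, transcribed in situ by E. coli RNA polymerase and tracked at 37 °C with a hybridised Cy3 probe. Glucosamine-6-phosphate, 40 μM to 10 mM in HEPES/KCl/Mg(OAc)2 buffer, was flowed in while tiles were imaged over ~14 h. Baseline-normalised signals, also normalised to non-cleaving reference variants, gave per-tile medians that were fit to one- or two-exponential decays for kobs. kcat and KM resulted from weighted Michaelis–Menten fits across concentrations.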

glucosamine-6-phosphate [2] = variants of: B1; test: self-cleavage kobs at 160 uM GlcN6P; higher = faster cleavage; RNA array
Procedure, shortened: as §1

glucosamine-6-phosphate [3] = variants of: B1; test: self-cleavage kobs at 640 uM GlcN6P; higher = faster cleavage; RNA array
Procedure, shortened: as §1

glucosamine-6-phosphate [4] = variants of: B1; test: self-cleavage kobs at 2500 uM GlcN6P; higher = faster cleavage; RNA array
Procedure, shortened: as §1

glucosamine-6-phosphate [5] = variants of: B1; test: self-cleavage kobs at 10000 uM GlcN6P; higher = faster cleavage; RNA array
Procedure, shortened: as §1

Variant | self-cleavage kobs at 40 uM GlcN6P (glucosamine-6-phosphate [1]) [s⁻¹] | self-cleavage kobs at 160 uM GlcN6P (glucosamine-6-phosphate [2]) [s⁻¹] | self-cleavage kobs at 640 uM GlcN6P (glucosamine-6-phosphate [3]) [s⁻¹] | self-cleavage kobs at 2500 uM GlcN6P (glucosamine-6-phosphate [4]) [s⁻¹] | self-cleavage kobs at 10000 uM GlcN6P (glucosamine-6-phosphate [5]) [s⁻¹]
AUAAAAGCGCCAGAAUUACAGAAAUGUAGUUGACGAGGAGGAGGUUUAUCGAAUGUUCGGCGGAUGCCUCCAAA [C16U U55G] | 0.000446 ± 7.1e-05 | 0.00102 ± 0.00026 | 0.00467 ± 0.0013 | 0.00554 ± 0.0013 | 0.0464 ± 0.01
AUAAAAGCGCCAGAACUAAAGAAAUGUAUUUGACGAGGAGGAGGUUUAUCGAAUUUUAGGCGGAUGGCUCCAAA [C19A G29U C58A C67G] | 3.09e-05 ± 1.3e-05 | – | – | – | 6.68e-05 ± 1.4e-05
AUAAAAGCGCCAGAACUACAAAAAUGUAGUUGACGAGGAGGAGGUUUAUCGAAUUUUCGGCGGAUGCCUACAAA [G21A C70A] | 3.65e-05 ± 1.8e-05 | – | – | 7.55e-05 ± 1.5e-05 | 0.000262 ± 6.9e-05
AUAAAAGCGCCAGAACUAAAGAAAUGUAGUUGACGAGGAGGAGGUUUAUGGAAUUUUCGGCGGAUGCCUCCAAA [C19A C50G] | 5.77e-05 ± 2.2e-05 | 0.000364 ± 9.5e-05 | 0.000594 ± 0.00013 | 6.17e-05 ± 2.2e-05 | 4.18e-05 ± 1.5e-05
AUAAAAGCGCCAGAACUACAUAAAUGUAGUUGACGAGGGGGAGGUUUAUCGAAUUUUCGGCGGAUGCCUCCAAA [G21U A39G] | 0.00105 ± 0.00032 | – | – | – | –
AUAAAAGCGCCAGAACUACAGACAUGUAGUUGACGAGGAGGAGGUUUAUCGAAUUUUCGGCGGAUGCCUCCAAA [A23C] | 0.00185 ± 0.00044 | 0.00277 ± 0.00082 | 0.00459 ± 0.0012 | 0.0102 ± 0.0033 | 0.0549 ± 0.021
AUAAAAGCGCCAGAACUACAUAAAUGUAGCUGACGAGGAGGAGGUUUAUCGAAUUUCCGGCGGAUCUCUCCAAA [G21U U30C U57C G66C C67U] | < 1e-05 | – | – | – | –
AUAAAAGCGCCAGAACUAAAGAAAUGUAGUUGACGAGGAGGAGGUUUAUCGAAUUUUCGGCGGAUGACUCCAAA [C19A C67A] | 0.000243 ± 6.1e-05 | – | 0.00033 ± 9.6e-05 | – | 0.000881 ± 0.00024
AUAAAAGCGCCAGAACUACAUAAAUGUAGUUAACGAGGAGGAGGUUUAUGGAAUUUGCGGCGGAUGCCUGCAAA [G21U G32A C50G U57G C70G] | 0.000174 ± 3.9e-05 | – | – | – | 0.000301 ± 6.1e-05
AUAAAAGCGCCAGAACUACACAAAUGUAAUUGACGAGGAGGAGGUUUAUCGAAUUUUCGGCGGAUGCCUCCAAA [G21C G29A] | 6.68e-05 ± 2.4e-05 | – | – | – | 0.00366 ± 0.00094
AUAAAAGCGCCAGAACUACAGAAAUAUAGUUGACGAGGAGGAGGUUUAUCGAAUUUUCGGCGGAUGUCUCCAAA [G26A C67U] | 0.000613 ± 0.00023 | – | – | – | –
AUAAAAGCGCCAGAACUACAUAAAUGUAGUAGACGAGGAGGAGGUUUAUCGAAUUUUCGGCGGAUGCCUCCAAA [G21U U31A] | 0.000447 ± 9.2e-05 | 0.00108 ± 0.0003 | 0.00614 ± 0.0013 | 0.0102 ± 0.0025 | 0.042 ± 0.018
AUAAAAGCGCCAGAAUUACAGAAAUGUAGUUGACGAGGAGGAGGUUUAUCGAAUAUUCGGCGGAUGACUCCAAA [C16U U55A C67A] | 0.000154 ± 5.7e-05 | – | – | – | 0.00183 ± 0.00074
